In the supplement of paper PMC7125110:
± gives the standard error. Variants at the floor of the assay were thinned out.

B1: glmS ribozyme (parent)
chain: AUAAAAGCGCCAGAACUACAGAAAUGUAGUUGACGAGGAGGAGGUUUAUCGAAUUUUCGGCGGAUGCCUCCAAA

Experiments:
Conditions in all cases: with glucosamine-6-phosphate
glucosamine-6-phosphate [1] = variants of: B1; experiment: self-cleavage kobs at 40 uM GlcN6P; higher = faster cleavage; RNA array
Summary of the method: (§1)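 Tiles of sequenced MiSeq chips were imaged over ~14 h at 37 °C. On them, barcoded ribozyme variants had been transcribed in situ by E. coli RNA polymerase and were tracked via a hybridised Cy3 probe while glucosamine-6-phosphate (40 μM to 10 mM) in HEPES/KCl/Mg(OAc)2 buffer flowed in. Per-tile medians, normalised to baseline and to non-cleaving reference variants, were fit to one- or two-exponential decays for kobs, and weighted Michaelis–Menten fits gave kcat and KM.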

glucosamine-6-phosphate [2] = variants of: B1; experiment: self-cleavage kobs at 640 uM GlcN6P; higher = faster cleavage; RNA array
Summary of the method: as §1

glucosamine-6-phosphate [3] = variants of: B1; experiment: self-cleavage kobs at 10000 uM GlcN6P; higher = faster cleavage; RNA array
Summary of the method: as §1

glucosamine-6-phosphate [4] = variants of: B1; experiment: self-cleavage kobs at 160 uM GlcN6P; higher = faster cleavage; RNA array
Summary of the method: as §1

glucosamine-6-phosphate [5] = variants of: B1; experiment: self-cleavage kobs at 2500 uM GlcN6P; higher = faster cleavage; RNA array
Summary of the method: as §1

Variant	self-cleavage kobs at 40 uM GlcN6P (glucosamine-6-phosphate [1]) [s⁻¹]	self-cleavage kobs at 640 uM GlcN6P (glucosamine-6-phosphate [2]) [s⁻¹]	self-cleavage kobs at 10000 uM GlcN6P (glucosamine-6-phosphate [3]) [s⁻¹]	self-cleavage kobs at 160 uM GlcN6P (glucosamine-6-phosphate [4]) [s⁻¹]	self-cleavage kobs at 2500 uM GlcN6P (glucosamine-6-phosphate [5]) [s⁻¹]
AUAAAAGCGCCAGAACUACAGAAAUGUAGUUGACGAGGAGGAGGUUUAUCGAACUUUCGGCGGAAGCCUCCAAA [U54C U65A]	6.51e-05 ± 8.4e-06	0.00147 ± 0.00042	0.00332 ± 0.00031	–	–
AUAAAAGGGCCAGAACUACAGAAAUGUAGUUGACGAGGAGGAGGUUUAUCGAAUUUUCGGCGGAUUCCUCCAAA [C8G G66U]	< 1e-05	< 1e-05	–	< 1e-05	< 1e-05
AUAAAAGCGCCAGAACUACAGAAAUGUAGUUGACGAGGAGGAGGGGUAUCGAAUUUUCGGAGGAUGCCUCCAAA [U45G U46G C61A]	< 1e-05	–	< 1e-05	–	–
AUAAAAGCGCCAGAAAUACAGAAAUGUAGUUGACGAGGAUGAGGUUUUUCGAAUUUUCGGCGGAUGCCUCCAAA [C16A G40U A48U]	< 1e-05	–	< 1e-05	–	–
AUAAAAGCUCCAGAUCUACAGAAAUGUAGUUGACGAGGAGAAGGUUUAUCGAAUAUUCGACGGAUGCCUCCAAA [G9U A15U G41A U55A G60A]	< 1e-05	–	< 1e-05	–	–
AUAAAGGCGGCAGAACUACAGAAAUGUAGUGGACGAGGAGGAGGUUUAUCGAAUAUUCGGCGGAUGCCUCCAAA [A6G C10G U31G U55A]	< 1e-05	–	–	–	–
AUAAAAGCGCCAGAACUACAGAAAUGUAGUUGCCGAGGAGGAGGUUUAUCGAAUUUUCGGCGGCUGCUUCCAAA [A33C A64C C68U]	< 1e-05	< 1e-05	< 1e-05	< 1e-05	< 1e-05
AUAAAAACGCCAGAACUACAGAAAUGUAGUUGAGGAGGAGGAGGUUUAUCGAAUUCUCGGCGGAUGCCUCCAAA [G7A C34G U56C]	< 1e-05	–	–	–	–
AUAAAAGCGGCAGAACUACAGAAAUGUAGUUGAAGAGGAGGAGGUUUCCCGAAUUUUCGGCGGAUGCCUCCAAA [C10G C34A A48C U49C]	< 1e-05	–	–	–	–
AUAAAAGCGCCAGAACUACAGAAAUGUAGUUGACGAUGAGGAGGUUUAUCGUAUUUUCGGCGGAUGCCUCCAAA [G37U A52U]	< 1e-05	< 1e-05	–	–	< 1e-05
AUAAAAGCGGCAGAACUACAGAAAUGUAGUUGACGAGGAGGAGUUUUAUCGAAUUUUCGGCGGAUGCUUUCAAA [C10G G44U C68U C70U]	< 1e-05	–	< 1e-05	–	–
AUAAAAUCGCCAGAACUACAGAAAUGUAGUUGACGAGGAGGAGGUUUAUCGAAUUUUCGGCCGAUGCCUCCAAA [G7U G62C]	< 1e-05	< 1e-05	< 1e-05	< 1e-05	< 1e-05
AUAAAAGCGCCAGAACUACAGAAAUGUAGCUGACGAGGAAGAGGUUUAUCGGAUCUUCGGGGGAUGCCUCCAAA [U30C G40A A52G U55C C61G]	< 1e-05	–	< 1e-05	–	–
AUAAAAGCGCCAGAACUACAUAAAUGUAGUUGACGAGGAGGAGGUAUAUCGAAUUUUCGGCGGAUGCCUCCAAA [G21U U46A]	6.35e-05 ± 2.2e-05	–	0.00269 ± 0.00086	–	0.00271 ± 0.0012
AUAAAAGCGCCAGAGGUACAGAAAUGUAGUUGGCGAGGAGGAGGUUUAUCGGAUUUUCGACGGAUGCCUCCAAA [A15G C16G A33G A52G G60A]	< 1e-05	–	< 1e-05	< 1e-05	–
AUAAAAACGCCAGAACUACAGAAAUGUAGUUGAAGAGGAGGAGGUUUAUCGAAUUUUCGGCGGAUGCCUCCAAA [G7A C34A]	< 1e-05	< 1e-05	< 1e-05	< 1e-05	< 1e-05
AUAAAAGAGCCAGAACUACAGAAAUGUAGUUGACGAGGAGGAAGUUUAUCGAAUUUUCGGCGGAUGCCUCCAAA [C8A G43A]	< 1e-05	< 1e-05	–	< 1e-05	< 1e-05
AUAAAAGCGCCGGUACUACAGAAAUGUAGUUGACGGGGAGGAGGUUUGUCGAGUUUUCGGCGGAUGCCUCCAAA [A12G A14U A36G A48G A53G]	< 1e-05	–	< 1e-05	–	< 1e-05
AUAAAAGCGCCAGAACUACAGAAAUGUAGUUUACGAGGAGGAGUUUUAUCGAAUUUUCGGCGGAUGCCUCCAAA [G32U G44U]	< 1e-05	< 1e-05	–	< 1e-05	–
AUAAAAUCGCCAGAACUACAGAAAUGUAGUUGACGAAGAGGAGGUUUAUCGAAUUUUUGGCGGAUGCCGCCAAA [G7U G37A C58U U69G]	7.21e-05 ± 2.9e-05	–	–	–	–
AUAAAAGUGCCAGAUCUACAGAAAUGUAGGUGACCAGGAGUAGGUUUAUCGAAUUUUCGGCGGAUGCCUCCAAA [C8U A15U U30G G35C G41U]	< 1e-05	< 1e-05	–	–	< 1e-05
AUAAAAGCGCCAGAACUACAGAAAUGUAGUUGGCGAGGAGGAGUUUUAUCGAAUUUUCGGCGGAUGUCUCCAAA [A33G G44U C67U]	< 1e-05	–	< 1e-05	–	–
AUAAAAGCGCUAGAACUACAGAAAUGUAGUUGACGCGGAGGAGGUUUAUCGAAUUUUCGGUGGAUGCCUCCAAA [C11U A36C C61U]	< 1e-05	< 1e-05	–	–	–
AUAAAAGCGGCAGAACUACAGAAAUGUAGUUGACGAGGAGGAAGUUUAUCGAAUUUUCGGCUGAUGCCUCCAAA [C10G G43A G62U]	< 1e-05	< 1e-05	–	–	–
AUAAAAGCGCCUGAACUACAGAAAUGUAGUUGACGAGCAGGAGGUUUAUCGGAUUUUAGGCGGAUGCCUCCAAA [A12U G38C A52G C58A]	< 1e-05	–	–	–	–
AUAAAAGCGCCAGAACUACAGAAAUGUAGUUGACGAGGAGCAGUUUGAUCGAAUUUUCGGCGGAUGCCUCCAAA [G41C G44U U47G]	< 1e-05	–	–	–	–
AUAAAAGCGCCAGAACUACAGAAAUGUAGUUGACGAGGAGGAGGUUUAUCGAUUUUUCGGCGGAUAUCUCCAAA [A53U G66A C67U]	7.59e-05 ± 1.6e-05	–	0.00355 ± 0.00067	–	–
AUAAAAGCGCCAGAACUACAGAAAUGUACUCGACGAAGAGGAGGUUUAUCGAAUUUUCGGCGGAUGACUCCAAA [G29C U31C G37A C67A]	< 1e-05	–	< 1e-05	–	< 1e-05
AUAAACGCGCCAGAACUACAGAAAUGUAGUUGACUAGAAGGAUGUUUAUCGAAGUUUCGGCGGAUGUCUCCAAA [A6C G35U G38A G43U U54G C67U]	< 1e-05	–	< 1e-05	–	< 1e-05
